This note sets out measurements from paper doi:10.1101/2025.11.17.688911, “Structure and mechanism of microtubule stabilization and motor regulation by MAP9” (bioRxiv, 2025).

Test [1] deals with T1, surface-immobilized biotinylated microtubules (pig, UniProt Q2XVP4 1-451; Q767L7 1-444, biotin (site not stated) | biotin (site not stated)). Nature of the test: TIRF microscopy, fluorescence intensity of GFP-tagged MAP on microtubules; biotinylated MTs held on a streptavidin-coated coverslip; MAP titrated in BRB80 (80 mM PIPES pH 6.8, 1 mM EGTA, 2 mM MgCl2; about 100 mM salt) with 1 mg/mL casein, 0.5% pluronic acid, no motors or ATP; intensity fit to the Langmuir isotherm. The conditions noted are these: both partners purified.

For test [2], the target named is T1, surface-immobilized biotinylated …. In words: cell-based or functional assay.

B1: full-length (FL) human MAP9 (GFP::Human MAP9::strepII) (natural protein, UniProt Q49MG5 1-647, looked up)
chain: MSDEVFSTTLAYTKSPKVTKRTTFQDELIRAITARSARQRSSEYSDDFDSDEIVSLGDFSDTSADENSVNKKMNDFHISDDEEKNPSKLLFLKTNKSNGNITKDEPVCAIKNEEEMAPDGCEDIVVKSFSESQNKDEEFEKDKIKMKPKPRILSIKSTSSAENNSLDTDDHFKPSPRPRSMLKKKSHMEEKDGLEDKETALSEELELHSAPSSLPTPNGIQLEAEKKAFSENLDPEDSCLTSLASSSLKQILGDSFSPGSEGNASGKDPNEEITENHNSLKSDENKENSFSADHVTTAVEKSKESQVTADDLEEEKAKAELIMDDDRTVDPLLSKSQSILISTSATASSKKTIEDRNIKNKKSTNNRASSASARLMTSEFLKKSSSKRRTPSTTTSSHYLGTLKVLDQKPSQKQSIEPDRADNIRAAVYQEWLEKKNVYLHEMHRIKRIESENLRIQNEQKKAAKREEALASFEAWKAMKEKEAKKIAAKKRLEEKNKKKTEEENAARKGEALQAFEKWKEKKMEYLKEKNRKEREYERAKKQKEEETVAEKKKDNLTAVEKWNEKKEAFFKQKEKEKINEKRKEELKRAEKKDKDKQAINEYEKWLENKEKQERIERKQKKRHSFLESEALPPWSPPSRTVFAKVF
notes: human MAP9, full length; also called FL MAP9; ASAP; source: E. coli Rosetta (DE3), purified (Strep-Tactin XT; for structural studies also heparin HP and Superdex 200); not shown: GFP, N-terminal, kept
For orientation: Kd means the equilibrium constant for the complex coming apart. As to B1, the dissociation constant Kd in test [1] came out at 61 nM. Moreover, the “depolymerization rate of MTs after removing free tubulin and GTP, with MAP9 kept in the chamber” value in test [2] came out at 6 fold.
